Measurements reported in the RNAGym collection of RNA variant scans (doi:10.7554/elife.90254).

B1: OR4K15 (parent)
chain: GUUAACGGUCAUAGGCCAUGGAAACUAGGAGCACCAUUUCGCUGCCAGUGAAGAAAUGAACAAAGAAAAUCUGGGCCAGGCAGGCAUCAAAAGAAAUAGUCUUGCGCUCAACCAGAAAGUCUGUAAUCAUUUUAAGGGUA

Variants of: B1
Test: self-cleavage, relative activity (ratio to wild type); higher = more cleavage; in vitro, sequencing; the parent is a self-cleaving ribozyme

In order of falling self-cleavage:
1. GUUAACGGUCAUAGGCCAUGGAAACUAGGAGCACCAUUUCGCUGCCAGUGAAGAAAUGAACAAAGACAAUCUGGGCCAGGCAGGCAUCAAAAGAAAUAGUCUUGCGCUCAACCAGAGAGUCUGUAAUCAUUUUAAGGGUA  2.74
2. GUUAACGGCCAUAGGCCAUGGAAACUAGGAGCACCAUUUCGCUGCCAGUGAAGAAAUGAACAAAGAAAAUCUGGGCCAGGCAGGCAUCAAAAGAAAUAGUCUUGCGCUCAACCAGAAAGUCUGUAAACAUUUUAAGGGUA  2.67
3. GUUAACGGUCAUAGGCCAUGGAAACUAGGAGCACCAUUUCGCUGCCAGUGAAGAAAUGAACAAAGAAGAUCUGGGCCAGGCAGGCAUCUAAAGAAAUAGUCUUGCGCUCAACCAGAAAGUCUGUAAUCAUUUUAAGGGUA  2.23
4. GUUAACGGUCAUAGGUCAUGGAAACUAGGAGCACCAUUUCGCUGCCAGUGAAGAAAUGAACAAAGAAAAUCUGGGCCAGGCAGGCAUCAGAAGAAAUAGUCUUGCGCUCAACCAGAAAGUCUGUAAUCAUUUUAAGGGUA  1.55
5. GUUAACGGUCAUAGGCCAUGGAAACUAGGAGCACCAUUUCGCUGCCAGUGAAGAAAUGAACAAAGAGAAUCUGGGCCAGGCAGGCAUCUAAAGAAAUAGUCUUGCGCUCAACCAGAAAGUCUGUAAUCAUUUUAAGGGUA  1.53
6. GUUAACGGUCAUAGGCCAUGGAAACUAGGAGCACCAUUUCGCUGCCAGUGAAGAAAUGAACAAAGAAAAUCUGGGCCAGGCAGGCUUCCAAAGAAAUAGUCUUGCGCUCAACCAGAAAGUCUGUAAUCAUUUUAAGGGUA  1.51
7. GUUAACGGCCAUAGGCCAUGGAAACUAGGAGCACCAUUUCGCUGCCAGUGAAGAAAUGAACAAAGAAAAUCUGGGCCAGGCAGGCAUCAAAAGAAAUAGUCUUGCGCUCAACCAGAAAGUCUGUAAUCAUUCUAAGGGUA  1.45
8. GUUAACGGUCAUAGGUCAUGGAAACUAGGAGCACCAUUUCGCUGCCAGUGAAGAAAUGAACAAAGAAGAUCUGGGCCAGGCAGGCAUCAAAAGAAAUAGUCUUGCGCUCAACCAGAAAGUCUGUAAUCAUUUUAAGGGUA  1.42
9. GUUAACGGUCAUAGGCCAAGGAAACUAGGAGCACCAUUUCGCUGCCAGUGAGGAAAUGAACAAAGAAAAUCUGGGCCAGGCAGGCAUCAAAAGAAAUAGUCUUGCGCUCAACCAGAAAGUCUGUAAUCAUUUUAAGGGUA  1.35
10. GUUAACGGUCAUGGUCCAUGGAAACUAGGAGCACCAUUUCGCUGCCAGUGAAGAAAUGAACAAAGAAAAUCUGGGCCAGGCAGGCAUCAAAAGAAAUAGUCUUGCGCUCAACCAGAAAGUCUGUAAUCAUUUUAAGGGUA  1.33
11. GUUAACGGUCAUAGGCCAUGGAAACUAGGAGCACCAUUUCGCAGCCAGUGAAGAAAUGAACAAAGAAAAUCUGGGCCAGGCAGGCAUCAAAAGAAAUAGUCUUGCGCUCAACCAGAAAGUCUGUAAUCAUUUUACGGGUA  1.29
12. GUUAACGGUCAUAGGCCAUGGAAACUAGGAGCACUAUUUCGCUGCCAGUGAAGAAAUGAACAAAGAAAAUCUGGGCCAGGCAGGCAUCAAAAGAAAUAGUCUUGCGCUCAACCAGAAAGUCAGUAAUCAUUUUAAGGGUA  1.26
13. GUUAACGGUCAUAGGCCAUGGAAACUAGGAGCACCAUUUCGCUGCCGGUGAAGAAAUGAACAAAGAAAAUCUGGGCCAGGCAGGCAUCAAAAGAAAUAGUCCUGCGCUCAACCAGAAAGUCUGUAAUCAUUUUAAGGGUA  1.25
14. GUUAACGGUCAUAGGCCAUGGAAGCUAGGAGCACCAUUUCGCUGCCAGUGAAGAAAUGAACAAAGAAAAUCUGGGCCAGGCAGGCAUCAAAAGAAGUAGUCUUGCGCUCAACCAGAAAGUCUGUAAUCAUUUUAAGGGUA  1.2
15. GUUGACGGUCAUAGGCCAUGGAAACUAGGAGCACCAUUUCGCUGCCAGUGAAGAAAUGAACAAAGAAAAUCUGGGCCAGGCAGGCAUCAAAAGAAAUAGUCUCGCGCUCAACCAGAAAGUCUGUAAUCAUUUUAAGGGUA  1.19
16. GUUAACGGUCAUAGGCCAUGGAAGCUAGGAGCACCAUUUCGCUGCCAGUGAAGAAAUGAACAAAGAAAAUCUGGGCCAGGCAGGCAUCAAAAGAAAUAGUCUUGCGCUCAACCAGAAAGUCUGUAAUCAUUUAAAGGGUA  1.18
17. GUUAACGGUCAUAGGCCAUGGAAACUAGGAGCACCAUUUCGCUGCCAGUGAAGAAAUGAACAAAGAAAAUCUGGGCCAGGCAGGCAUCAAAUGAAAUAGUCUUGCGCUCAACCAGAAAGUCUGUAGUCAUUUUAAGGGUA  1.18
18. GUUAACGGUCAUAGGCCAUGGAAACUAGGAGCACCAUUUCGCUGCCAGUGAAGAAAUGAGCAAAGAAAAUCUGGGCCAGGCAGGCAACAAAAGAAAUAGUCUUGCGCUCAACCAGAAAGUCUGUAAUCAUUUUAAGGGUA  1.02
19. GUUAACGGUCAUAGGCCAUGGAAACUAGGAGCACCGUUUCGCUGCCAGUGAAGAAAUGAACAAAGAAAAUCUGGGCCAGGCAGGCGUCAAAAGAAAUAGUCUUGCGCUCAACCAGAAAGUCUGUAAUCAUUUUAAGGGUA  1.01
20. GUUAACGGUCAUAGACCAUGGAAACUAGGAGCACCAUUUCGCUGCCAGUGAAGAAAUGAACAAAGAAAAUCUGGGCCAGGCAGGCAUCAAAAGAAAUAGUCUUGCGCUCAACCAGAAAGUCUGUAAUCAUCUUAAGGGUA  0.87
21. GUUAACGGUCAUAGGCCAUGGAGACUAGGAGCACCAUUUCGCUGCCAGUGAAGAAAUGAACAAAGAAAAUCUGGGCCAGGCAGGCAUCAAAAGAAAUAGUCUUGCGCUCAACCAGAAAGUCUGUAACCAUUUUAAGGGUA  0.79
22. GUUAACGGUCAUAGGCCAUGGAAACUAGGAGCACCAUUUCGCUGCCAGUGAAGAAAUGGACAAAGAAAAUCUGGGCCAGGCAGGCAUCAAAAGAAUUAGUCUUGCGCUCAACCAGAAAGUCUGUAAUCAUUUUAAGGGUA  0.71
23. GUUAACGGUCAUAGGCCAUGGAAACUAGGAGCACCAUUUCGCUGCCAGUGAAGAAAUGAACAAAGAAAAUCUGGGCCAGGCAGGCAUCUAAAGAAAUAGUCUUGCGCUCAACCAGUAAGUCUGUAAUCAUUUUAAGGGUA  0.46
24. GUUAACGGUCAUAGGCCAUGGAAACUAGGAGCACCAUUUCGCUGCCAGUGAAGAAAUGAACAAAGAAAAUCUGGGCCAGGCAGGCAUCAAAAGGAAUAGUCUUGCGCUCAACCAGAAAGUCUGUAAUCAUUUUAGGGGUA  0.43
25. GUUAACGGUCAUAGGCCAUGGAAACUAGGAGCACCAUUUCGCUGCCAGUGAAGAAAUGAACAAAGAAAAUCUGGGCCAGGCAGGCAUCAAAAGAAAUAGUCUUGCGCUCAACCAGAAAGUCUGUAAUCUUUUUAUGGGUA  0.42
26. GUUAACGGUCAUAGGCCAUGGAAACUAGGAGCACCAUUUCGCUGCCAGUGAAGAAAUGAACAAAGAAAAUCUGGGCCAGGCAGGCAUCAAAAGAAGUAGUUUUGCGCUCAACCAGAAAGUCUGUAAUCAUUUUAAGGGUA  0.4
27. GUUAACGGUCAUAGGCCAUGGAAACUAGGAGCACCAUUUCGCUGCCAGUGAAGAAAUGAACAAAGAAAGUCGGGGCCAGGCAGGCAUCAAAAGAAAUAGUCUUGCGCUCAACCAGAAAGUCUGUAAUCAUUUUAAGGGUA  0.38
28. GUUAACGGUCAUAGGCCAUGGAAACUAGGCGCACCAUUUCGCUGCCAGUGAAGAAAUGGACAAAGAAAAUCUGGGCCAGGCAGGCAUCAAAAGAAAUAGUCUUGCGCUCAACCAGAAAGUCUGUAAUCAUUUUAAGGGUA  0.35
29. GUUAACGGUCAUAGGCCAUGGAAACUAGGAGCACCAUUUAGCUGCCAGUGAAGAAAUGAACAAAGAAAAUCUGGGCCGGGCAGGCAUCAAAAGAAAUAGUCUUGCGCUCAACCAGAAAGUCUGUAAUCAUUUUAAGGGUA  0.32
30. GUUAACGGUCAAAGGCCAUGGAAACUAGGAGCACCAUUUCGCUGCCAGUGAAGAAAUGAACAAAGAAAAUCUGGGCCAGGCUGGCAUCAAAAGAAAUAGUCUUGCGCUCAACCAGAAAGUCUGUAAUCAUUUUAAGGGUA  0.3
31. GUUAACGGUCAUAGGCCAUGGAAACUAGGAGCACCAUUUCGCUGCCAGUGAAGUAAUGAACAAAGAAAAUCUGGGCCGGGCAGGCAUCAAAAGAAAUAGUCUUGCGCUCAACCAGAAAGUCUGUAAUCAUUUUAAGGGUA  0.25
32. GUUAACGGUCAUAGGCCAUGGAAACUAGGAGCACCAUUUCGCUGCCAGUGGAGAAAUGAACAAAGAAAAUCGGGGCCAGGCAGGCAUCAAAAGAAAUAGUCUUGCGCUCAACCAGAAAGUCUGUAAUCAUUUUAAGGGUA  0.25
33. GUUAACGGUCACAGGCCAUGGAAACUAGGAGCACCAUUUCGCUGCCAGUGAAGAAAUGAACAAAGAAAAUCUGGGCCAGGCAGGCAUCAAAAGAAAUAGUCUUGCGCUCAACCAGAAAGUCUGUAAUCAUUCUAAGGGUA  0.2
34. GUUAACGGUCAUAGGCCAUGGAAACUAGGAGCACCAUUUCGCUGCCAGUGAAGAAAUGAACAAAGAAAAUCUGGGCCAGGCAGGCAUCAAAAGAAAUUGUCUUGCGCUCAACCUGAAAGUCUGUAAUCAUUUUAAGGGUA  0.12
35. GUUAACGGUCAUAGGCCAUGGAAACUAGGAGCACCAUUUCGCUGCCAGUGAAGAAAUGAACAAAGAAAAUCUGGGCCAUGCAGGCAUCAAAAGAAAUAGUCUUGCGCUCAACCAGAAAGUCUGUAAUCAUUCUAAGGGUA  0.09
36. GUUAACGGUCAUAGGCCAUGGAAACUAGGAGCACCAUUUCGCUGCCAGUGAAGAAAUGAACAAAGAAAAUCUGGGCCAGGCAGGCAUCGAAAGAAAUAGUCUUGCGCACAACCAGAAAGUCUGUAAUCAUUUUAAGGGUA  0.02
37. GUUAACGGUCAUAGGCCAUGGAAACUAGGAGCACCAUUUCGCUGCCAGUGAAGAAAUGAACAAAGAAAAUCUGGGCCAGGCAGGCAUCAAAAGAAAUAGUCUUGCGCUCAGCCAGAAAGUCUGUAAUCAUUUUAAUGGUA  0.02
38. GUUAACGGUCAUAGGCCAUGGAAACUAGGAGCACCAUUUCGCUGCCAGUGAAGAAAUGAACAAAGAAAAUCUGGCCCAGGCAGGCAUCAAAAGAAAUAGUCUUGCGCUCGACCAGAAAGUCUGUAAUCAUUUUAAGGGUA  0.02
39. GUUAACGGUCAUAGGCCAUGGAAACUAGGAGCACCAUUUCGCUGCCAGUGAAGAAAUGAACAAAGAAAAUCUGGGCCAGGCAGUCAUCAAAAGAAAUAGUCUUGCGCCCAACCAGAAAGUCUGUAAUCAUUUUAAGGGUA  0.02
40. GUUAACGGUCAUAGGCCAUGGAAACUAGGAGCACCAUUUCGCUGCCAGUGAAGAAAUGAACAAAGAAAAUCUGGGCCAGGCAGGCAUCAAAAGAAAUAGUCUUGCGCACAACCAGAAAGUCUCUAAUCAUUUUAAGGGUA  0.01
41. GUUAACGGUCAUAGGCCAUGGAAACUAGGAGCACCAUUUCGCUGCCAGUGAAGAAAUGAACAAAGAAAAUCUGGGCCAGGCAGGCAUCAAAAGAAAUAGUCUUGCGCUCAACCCGAAAGUCUGUAACCAUUUUAAGGGUA  0
